According to article PMC8147279:

Columns and labels:
[1] = target: β-sliding processivity clamp (Escherichia coli) (UniProt P0A988)
[2] = target: β-sliding processivity clamp (Escherichia coli) (UniProt P0A988); remark: listed apart in the source
[3] = target: β-sliding processivity clamp (Escherichia coli) (UniProt P0A988); remark: listed apart in the source
[4] = target: β-sliding processivity clamp (Escherichia coli) (UniProt P0A988); remark: listed apart in the source
[5] = target: β-sliding processivity clamp (Escherichia coli) (UniProt P0A988); remark: listed apart in the source
[6] = target: β-sliding processivity clamp (Escherichia coli) (UniProt P0A988); remark: listed apart in the source

Sequence of pol V Mut WT (UmuD’2C-RecA-ATP/ATPγS) (P04152 whole entry): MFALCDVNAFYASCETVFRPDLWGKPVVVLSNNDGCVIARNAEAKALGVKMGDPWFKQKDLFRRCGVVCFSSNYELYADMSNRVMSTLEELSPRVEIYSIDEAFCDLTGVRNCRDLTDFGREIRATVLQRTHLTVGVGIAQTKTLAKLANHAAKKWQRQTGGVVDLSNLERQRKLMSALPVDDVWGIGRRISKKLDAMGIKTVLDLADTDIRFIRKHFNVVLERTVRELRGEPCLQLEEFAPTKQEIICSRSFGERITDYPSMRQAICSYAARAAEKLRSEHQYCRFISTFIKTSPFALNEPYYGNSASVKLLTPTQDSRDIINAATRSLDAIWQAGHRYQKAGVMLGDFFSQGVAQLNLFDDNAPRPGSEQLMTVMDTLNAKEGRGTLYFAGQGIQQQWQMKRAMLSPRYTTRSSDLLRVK
Sequence of pol V Mut WT (UmuD’2C-RecA-ATP/ATPγS) (P0AG11 25-139): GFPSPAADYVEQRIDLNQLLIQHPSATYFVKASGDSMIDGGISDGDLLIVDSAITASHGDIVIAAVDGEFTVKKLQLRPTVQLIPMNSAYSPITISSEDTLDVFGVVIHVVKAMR
Sequence of pol V Mut WT (UmuD’2C-RecA-ATP/ATPγS) (P0A7G6 whole entry): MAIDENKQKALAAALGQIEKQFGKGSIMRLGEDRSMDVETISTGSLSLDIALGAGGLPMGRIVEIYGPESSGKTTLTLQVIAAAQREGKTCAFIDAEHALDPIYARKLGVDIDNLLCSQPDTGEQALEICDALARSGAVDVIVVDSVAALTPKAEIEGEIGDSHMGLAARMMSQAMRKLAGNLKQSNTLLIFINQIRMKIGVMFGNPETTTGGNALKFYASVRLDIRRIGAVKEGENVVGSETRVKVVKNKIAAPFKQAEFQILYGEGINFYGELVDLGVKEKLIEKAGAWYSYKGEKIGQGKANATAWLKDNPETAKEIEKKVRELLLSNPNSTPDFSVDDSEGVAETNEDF
Sequence of β-sliding processivity clamp (Escherichia coli) (P0A988 whole entry): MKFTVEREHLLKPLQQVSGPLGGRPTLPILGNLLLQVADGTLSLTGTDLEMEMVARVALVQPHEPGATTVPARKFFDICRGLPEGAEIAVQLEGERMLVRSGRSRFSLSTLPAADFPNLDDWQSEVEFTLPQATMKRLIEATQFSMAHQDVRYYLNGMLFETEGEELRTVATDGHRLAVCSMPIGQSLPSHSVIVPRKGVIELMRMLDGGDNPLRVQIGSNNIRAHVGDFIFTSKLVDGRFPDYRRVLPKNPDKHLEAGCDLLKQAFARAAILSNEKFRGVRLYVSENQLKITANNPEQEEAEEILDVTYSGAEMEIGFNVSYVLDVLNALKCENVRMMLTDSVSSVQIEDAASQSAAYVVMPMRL

Row | translesion synthesis past an abasic site 3 nt from the primer end, % PE, pol V Mut WT with dATP, ATPγS and β/γ, up to 120 min [4] | Substance | fold increase of DNA elongation rate by β on undamaged DNA, pol V Mut E38K/ΔC17-ATP [1] | percent of primer extended (% PE) on undamaged circular p/t DNA by pol V Mut E38K/ΔC17-ATPγS with β-clamp and γ-complex (γ-complex stays on β with ATPγS) [2] | percent of primer extended (% PE) on undamaged circular p/t DNA by pol V Mut E38K/ΔC17-ATP with β-clamp and γ-complex, 15-120 min (10% at 120 min without β) [3] | fold increase of DNA elongation rate by β on undamaged DNA, pol V Mut WT-ATP [1] | percent of primer extended (% PE) on undamaged circular p/t DNA by pol V Mut WT-ATPγS with β-clamp and γ-complex, 15-120 min (~5% at 60 min without β) [5] | percent of primer extended (% PE) on undamaged circular p/t DNA by pol V Mut WT-ATP with β-clamp and γ-complex, 15-120 min (about 1% without β) [6]
1 | – | pol V Mut E38K/∆C17 (UmuD’2C-RecA E38K/∆C17-ATP/ATPγS) (from UniProt P04152 1-422; P0AG11 25-139; P0A7G6 1-353) (complex) | 7 fold | 42% | 77% | – | – | –
2 | 35% | pol V Mut WT (UmuD’2C-RecA-ATP/ATPγS) (from UniProt P04152 1-422; P0AG11 25-139; P0A7G6 1-353) (complex) | – | – | – | 5 fold | > 40% | 5%
